Patent US20260034233A1 (SUNMED THERAPEUTIC, published 2026)
Blank lines part the entries; values can stand above or below the binder they belong to.

Assays:
[1] = molecular target: T1, human Galectin-3 (human, UniProt P17931 2-250, limits assumed); assay: SPR
T1 construct: also called Human GAL-3; hGal-3

[2] = molecular target: T2, Rat GAL-3 (rat, UniProt P08699 2-262, limits assumed); assay: SPR
T2 construct: also called rat Galectin-3
T2 sequence (looked up): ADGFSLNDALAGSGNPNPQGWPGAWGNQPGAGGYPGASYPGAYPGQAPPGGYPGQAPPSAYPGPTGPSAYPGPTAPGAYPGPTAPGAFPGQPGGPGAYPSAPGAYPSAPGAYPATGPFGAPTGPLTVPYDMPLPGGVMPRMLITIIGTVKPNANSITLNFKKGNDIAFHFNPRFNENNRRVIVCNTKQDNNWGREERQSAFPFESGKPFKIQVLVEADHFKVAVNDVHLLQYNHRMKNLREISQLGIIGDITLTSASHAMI

[3] = molecular target: T3, Mouse GAL-3 (mouse, UniProt P16110 2-264, limits assumed); assay: SPR
T3 construct: also called mouse Galectin-3

[4] = molecular target: T4, Gal3-e; assay: size exclusion chromatography of the mixture
T4 construct: also called Galectin3-e; Gal-3 peptide
T4 peptide: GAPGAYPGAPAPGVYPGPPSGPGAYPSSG
Experimental: For X-ray diffraction, first we developed a homogeneous Gal3-e-Fab complex through Size Exclusion Chromatography (SEC) and analyzed the complex through crystallization screening and optimization. However, no diffraction patterns but only large block- and rod-shaped crystals were observed by multi-rounds of optimization. Screened commercial kits included crystal screens, structure screens, Index, JCSG plus, PEG/Ion1&2, ProPlex screens, and additive screens.
Excess Gal3-e were incubated with the Fab on ice for 30 minutes. After the incubation, Gal3-e-Fab complex was isolated from the mixture using SEC (Column: Superdex 75 increase 10/300).

[5] = molecular target: T1, human Galectin-3; assay: ELISA on human Galectin-3

T1 sequence (P17931 2-250 limits assumed): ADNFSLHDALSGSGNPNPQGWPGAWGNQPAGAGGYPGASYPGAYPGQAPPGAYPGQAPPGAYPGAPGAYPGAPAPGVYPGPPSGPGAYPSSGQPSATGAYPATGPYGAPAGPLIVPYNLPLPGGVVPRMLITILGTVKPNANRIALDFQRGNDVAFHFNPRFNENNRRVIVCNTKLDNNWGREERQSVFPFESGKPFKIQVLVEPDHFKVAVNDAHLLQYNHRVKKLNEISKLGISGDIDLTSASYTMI
T3 sequence (P16110 2-264 limits assumed): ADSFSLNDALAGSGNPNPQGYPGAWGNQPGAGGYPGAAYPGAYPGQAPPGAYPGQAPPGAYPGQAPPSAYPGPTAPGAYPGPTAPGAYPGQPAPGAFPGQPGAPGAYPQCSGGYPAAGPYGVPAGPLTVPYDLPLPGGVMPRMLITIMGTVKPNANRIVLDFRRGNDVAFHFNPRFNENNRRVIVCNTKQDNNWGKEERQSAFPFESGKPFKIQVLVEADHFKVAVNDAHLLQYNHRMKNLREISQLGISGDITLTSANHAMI

- Kd [1]: 71.5 nM
- Kd [2]: 11.7 nM
- Kd [3]: 10.9 nM
B1: SIF001 (antibody, V domains shown)
VH: QVQLVQSGSELKKPGASVKVSCKASGYTFTNYGMNWVRQAPGQGLEWMGWINTYTGEPTYADDFKGRFVFSLDTSVSTAYLQISSLKNEDMAVYFCARYAMDYWGQGTLVTVSS
VL: EAVVTQEPSLTVSPGGTVTLTCRSSTGAVTTSNYANWVQQKPGQAFTGLIGGTSNRAPGTPARFSGSLLGDKAALTLLGAQPEDEAEYFCALWYSTHYVFGGGTKLTVL
notes: Humanized monoclonal antibody raised against human GAL-3; also called SIF001 Ab; SF001

- binding result [4]: binds
B2: Fab of the SIF001 antibody (Fab, V domains shown)
VH: QVQLVQSGSELKKPGASVKVSCKASGYTFTNYGMNWVRQAPGQGLEWMGWINTYTGEPTYADDFKGRFVFSLDTSVSTAYLQISSLKNEDMAVYFCARYAMDYWGQGTLVTVSS
VL: EAVVTQEPSLTVSPGGTVTLTCRSSTGAVTTSNYANWVQQKPGQAFTGLIGGTSNRAPGTPARFSGSLLGDKAALTLLGAQPEDEAEYFCALWYSTHYVFGGGTKLTVL

- binding result [5]: binds
B3: SIF002 (antibody, V domains shown)
VH: EVQLLESGGGLVQPGGSLRLSCAASGFTFSRFWMSWVRQAPGKGLEWVSEISPDSNTIDLTPSLKDRFTISRDNSKNTLYLQMNSLRAEDTAVYYCAKPYYGYYWGQGTLVTVSS
VL: DIVMTQSPDSLAVSLGERATMNCRSSQSLFSSTNQKNYLTWYQQKPGQPPKLLIYWASSRESGVPDRFSGSGSGTDFTLTISSLQAEDVAVYYCQNDYTSPFTFGQGTRLEIK
